± gives the uncertainty stated by the source.
Assay: self-splicing fitness, log relative to wild type (ln ratio); higher = more splicing; Tetrahymena group I intron in knt gene, E. coli kanamycin selection, DiMSum; sequences stand for … in CUCUCU…GGAGGGAAAAGUUAUCAGGCAUGCACCUGGUAGCUAGUCUUUAAACCAAUAGAUUGCAUCGGUUUAAAAGGCAAGACCGUCAAAUUGCGGGAAAGGGGUCAACAGCCGUUCAGUACCAAGUCUCAGGGGAAACUUUGAGAUGGCCUUGCAAAGGGUAUGGUAAUAAGCUGACGGACAUGGUCCUAACCACGCAGCCAAGUCCUAAGUCAACAGAUCUUCUGUUGAUAUGGAUGCAGUUCACAGACUAAAUGUCGGUCGGGGAAGAUGUAUUCUUCUCAUAAGAUAUAGUCGGACCUCUCCUUAAUGGGAGCUAGCGGAUGAAGUGAUGCAACACUGGAGCCGCUGGGAACUAAUUUGUAUGCGAAAGUAUAUUGAUUAGUUUUGGAGUACUCGUGGUCG
Method in brief: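 Colonies from six replicate transformations of E. coli BL21(DE3) were pooled and amplicon-sequenced on an Illumina HiSeq 2500. The library placed an intron with all eight P1ex-region nucleotides randomised inside the knt kanamycin-resistance gene on pET-22b(+), and cells grew overnight at 37°C or 30°C on LB agar with or without 25 μg/mL kanamycin (plus 100 μg/mL carbenicillin, 50 μM IPTG, 0.2% rhamnose). Fitness is the DiMSum error-weighted combination of wild-type-normalised replicate fold changes, kanamycin versus none.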

Sequence	self-splicing fitness (ln) (30 °C)	self-splicing fitness (ln) (37 °C)
CUUCAGCAAUAUUACGAGAG	-2.81 ± 0.12	-1.79 ± 0.14
CUUCAGCAAUAUUACGAGUA	-1.21 ± 0.4	
CUUCAGCAAUAUUACGCCGC	-3.14 ± 0.37	-2.43 ± 0.35
CUUCAGCAAUAUUACGCUUG	-2.94 ± 0.14	-1.22 ± 0.12
CUUCAGCAAUAUUACGCUUU		-2.85 ± 0.31
CUUCAGCAAUAUUACGGGUA	-3.12 ± 0.22	-3.74 ± 0.28
CUUCAGCAAUAUUACGUAGG	-1.49 ± 0.1	-0.863 ± 0.12
CUUCAGCAAUAUUACGUGCG	-2.43 ± 0.09	-0.814 ± 0.099
CUUCAGCAAUAUUACGUUCC	-2.64 ± 0.43	-1.71 ± 0.36
CUUCAGCAAUAUUACGUUCG	-0.922 ± 0.067	-0.372 ± 0.092
CUUCAGCAAUAUUACGUUUA	-3.96 ± 0.3	-2.49 ± 0.23
CUUCAGCAAUAUUACGUUUC	-2.93 ± 0.17	-2.17 ± 0.2
CUUGAGCAAUAUUACGACAC		-3.08 ± 0.47
CUUGAGCAAUAUUACGACUC		-1.67 ± 0.42
CUUGAGCAAUAUUACGAGUU	-4.15 ± 0.23	-2.33 ± 0.17
CUUGAGCAAUAUUACGCCAU	-2.92 ± 0.22	-3.8 ± 0.46
CUUGAGCAAUAUUACGCCGC	-1.08 ± 0.47	
CUUGAGCAAUAUUACGCCUU		-2.47 ± 0.37
CUUGAGCAAUAUUACGCGAA	-3.53 ± 0.4	
CUUGAGCAAUAUUACGCGAG	-3.64 ± 0.16	-2.82 ± 0.23
CUUGAGCAAUAUUACGGGAC	-3.63 ± 0.29	-2.56 ± 0.3
CUUGAGCAAUAUUACGGGUC	-3.49 ± 0.19	-2.97 ± 0.25

Sequence	self-splicing fitness (ln) (30 °C)	self-splicing fitness (ln) (37 °C)
CUUGAGCAAUAUUACGGUUU	-2.68 ± 0.16	-2.66 ± 0.29
CUUGAGCAAUAUUACGUGCC	-2.26 ± 0.17	-2.75 ± 0.38
CUUGAGCAAUAUUACGUGGU	-2.61 ± 0.15	-2.74 ± 0.19
CUUGAGCAAUAUUACGUUGG	-2.66 ± 0.28	-0.601 ± 0.18
CUUGAGCAAUAUUACGUUUC	-3.44 ± 0.27	-2.68 ± 0.36
CUUUAGCAAUAUUACGACUU		-3.6 ± 0.46
CUUUAGCAAUAUUACGAGUU		-2.96 ± 0.4
CUUUAGCAAUAUUACGAUAU	-3.93 ± 0.35	-3.25 ± 0.38
CUUUAGCAAUAUUACGAUUC	-3.16 ± 0.2	-2.6 ± 0.33
CUUUAGCAAUAUUACGCAGC		-2.27 ± 0.33
CUUUAGCAAUAUUACGCAUA	-3.68 ± 0.37	
CUUUAGCAAUAUUACGCCAA	-2.63 ± 0.37	
CUUUAGCAAUAUUACGCCUC		-1.99 ± 0.43
CUUUAGCAAUAUUACGCUUC		-2.32 ± 0.38
CUUUAGCAAUAUUACGGAAA		-2.01 ± 0.27
CUUUAGCAAUAUUACGGACG	-0.38 ± 0.07	-0.273 ± 0.11
CUUUAGCAAUAUUACGGACU	-4.41 ± 0.31	-3.71 ± 0.28
CUUUAGCAAUAUUACGGAGG	-1.75 ± 0.15	-1.29 ± 0.19
CUUUAGCAAUAUUACGGUGG	-1.96 ± 0.1	-0.665 ± 0.11
CUUUAGCAAUAUUACGUCAG	-1.03 ± 0.12	-0.4 ± 0.13
CUUUAGCAAUAUUACGUGGA	-3.4 ± 0.4	-3.58 ± 0.31
CUUUAGCAAUAUUACGUUCG	-1.09 ± 0.13	0.499 ± 0.17

— the supplement of paper PMC7877785
